{"source": "patent US20070274969A1", "about": "(published 2007)", "binders": {"B1": {"name": "human Bub1, endogenous (enzyme)", "chain": "MDTPENVLQMLEAHMQSYKGNDPLGEWERYIQWVEENFPENKEYLITLLEHLMKEFLDKKKYHNDPRFISYCLKFAEYNSDLHQFFEFLYNHGIGTLSSPLYIAWAGHLEAQGELQHASAVLQRGIQNQAEPREFLQQQYRLFQTRLTETHLPAQARTSEPLHNVQVLNQMITSKSNPGNNMACISKNQGSELSGVISSACDKESNMERRVITISKSEYSVHSSLASKVDVEQVVMYCKEKLIRGESEFSFEELRAQKYNQRRKHEQWVNEDRHYMKRKEANAFEEQLLKQKMDELHKKLHQVVETSHEDLPASQERSEVNPARMGPSVGSQQELRAPCLPVTYQQTPVNMEKNPREAPPVVPPLANAISAALVSPATSQSIAPPVPLKAQTVTDSMFAVASKDAGCVNKSTHEFKPQSGAEIKEGCETHKVANTSSFHTTPNTSLGMVQATPSKVQPSPTVHTKEALGFIMNMFQAPTLPDISDDKDEWQSLDQNEDAFEAQFQKNVRSSGAWGVNKIISSLSSAFHVFEDGNKENYGLPQPKNKPTGARTFGERSVSRLPSKPKEEVPHAEEFLDDSTVWGIRCNKTLAPSPKSPGDFTSAAQLASTPFHKLPVESVHILEDKENVVAKQCTQATLDSCEENMVVPSRDGKFSPIQEKSPKQALSSHMYSASLLRLSQPAAGGVLTCEAELGVEACRLTDTDAAIAEDPPDAIAGLQAEWMQMSSLGTVDAPNFIVGNPWDDKLIFKLLSGLSKPVSSYPNTFEWQCKLPAIKPKTEFQLGSKLVYVHHLLGEGAFAQVYEATQGDLNDAKNKQKFVLKVQKPANPWEFYIGTQLMERLKPSMQHMFMKFYSAHLFQNGSVLVGELYSYGTLLNAINLYKNTPEKVMPQGLVISFAMRMLYMIEQVHDCEIIHGDIKPDNFILGNGFLEQDDEDDLSAGLALIDLGQSIDMKLFPKGTIFTAKCETSGFQCVEMLSNKPWNYQIDYFGVAATVYCMLFGTYMKVKNEGGECKPEGLFRRLPHLDMWNEFFHVMLNIPDCHHLPSLDLLRQKLKKVFQQHYTNKIRALRNRLIVLLLECKRSRK", "notes": "mature; also called hBub1; Bub1 (U2OS cells)"}, "B2": {"name": "mouse Bub1, endogenous (enzyme)", "chain": "MDNLENVFRMFEAHMQSYTGNDPLGEWESFIKWVEENFPDNKEYLMTLLEHLMKEFLHKKNYHNDSRFINYCLKFAEYNSDRHQFFEFLYNQGIGTKSSYIYMSWAGHLEAQGELQHASAIFQTGIHNEAEPKELLQQQYRLFQARLTGIHLPAQATTSEPLHSAQILNQVMMTNSSPEKNSACVPKSQGSECSGVASSTCDEKSNMEQRVIMISKSECSVSSSVAPKPEAQQVMYCKEKLIRGDSEFSFEELRAQKYNQRKKHEQWVSEDRNYMKRKEANAFEEQLLKQKMDELHKKLHQVVELSHKDLPASENRPDVSLVCVGQNTCSQQELRGPSLSSISHQTSESSGEKPQEEPSVPLMVNAVNSTLLFPAANLPALPVPVSGQSLTDSRCVNQSVHEFMPQCGPETKEVCETNKVASINDFHTTPNTSLGMVQGTPCKVQPSPTVHTKEALGFIMDMFQAPTLPDISDDKDEWPSLDQNEDAFEAQFQKNAVSSGDWGVKKIMTLSSAFPIFEDGNKENYGLPQPKNKPLGARTFGERSLSKYSSRSNEMPHTDEFMDDSTVCGIRCNKTLAPSPKSIGDFTSAAQLSSTPFHKFPADLVQIPEDKENVVATQYTHMALDSCKENIVDLSKGRKLGPIQEKISASLPCPSQPATGGLFTQEAVFGLEAFKCTGIDHATVEDLSDANAGLQVECVQTLGNVNAPSFTVENPWDDELILKLLSGLSKPVTSYSNTFEWQSKLPAIKTKTEYQLGSLLVYVNHLLGEGAFAQVFEAIHGDVRNAKSEQKCILKVQRPANSWEFYIGMQLMERLKPEVHHMFIKFYSAHLFKNGSILVGELYSYGTLLNVINLYKNTSEKVMPQALVLTFAIRMLYMVEQVHSCEIIHGDIKPDNFILGHRFLEQADEDLATGLALIDLGQSIDMKLFPKGTVFTGKCETSGFQCPEMLSNKPWNYQIDYFGVAATIYCMLFGSYMKVKNEGGVWKPEGLFRRLPHLDMWEEFFHIMLNIPDCHNLPSLDFLRQNMKKLLEQQYSNKIKTLRNRLIVMLSEYKRSRK", "notes": "mature; also called mBub1; Bub1 (NIH3T3 cells)"}, "B3": {"name": "T antigen deletion mutant dl89-97 (other)", "chain": "MDKVLNREESLQLMDLLGLERSAWGNIPLMRKAYLKKCKEFHPDKGGDEEKMKKMNTLYKKMEDGVKYAHQPDFGGFWDATEIPTYGTFNEENLFCSEEMPSSDDEATADSQHSTPPKKKRKVEDPKDFPSELLSFLSHAVFSNRTLACFAIYTTKEKAALLYKKIMEKYSVTFISRHNSYNHNILFFLTPHRHRVSAINNYAQKLCTFSFLICKGVNKEYLMYSALTRDPFSVIEESLPGGLKEHDFNPEEAEETKQVSWKLVTEYAMETKCDDVLLLLGMYLEFQYSFEMCLKCIKKEQPSHYKYHEKYYANAAIFADSKNQKTICQQAVDTVLAKKRVDSLQLTREQMLTNRFNDLLDRMDIMFGSTGSADIEEWMAGVAWLHCLLPKMDSVVYDFLKCMVYNIPKKRYWLFKGPIDSGKTTLAAALLELCGGKALNVNLPLDRLNFELGVAIDQFLVVFEDVKGTGGESRDLPSGQGINNLDNLRDYLDGSVKVNLEKKHLNKRTQIFPPGIVTMNEYSVPKTLQARFVKQIDFRPKDYLKHCLERSEFLLEKRIIQSGIALLLMLIWYRPVAEFAQSIQSRIVEWKERLDKEFSLSVYQKMKFNVAMGIGVLDWLRNSDDDDEDSQENADKNEDGGEKNMEDSGHETGIDSQSQGSFQAPQSSQSVHDHNQPYHICRGFTCFKKPPTPPPEPET"}}, "key": {"T antigen mutant D44N": {"target": "T1, T antigen mutant D44N (SV40, UniProt P03070 1-708)", "T1 construct": "Defective DnaJ domain", "assay": "co-immunoprecipitation from U2OS stable lines"}, "[1]": {"target": "T2, SV40 large T antigen, wild-type (SV40, UniProt P03070 1-708)", "T2 construct": "also called wild-type T antigen; T Ag", "assay": "co-immunoprecipitation from U2OS/T cell lysates"}, "[2]": {"target": "T2, SV40 large T antigen, wild-type", "assay": "co-immunoprecipitation from NIH3T3/T cell lysates"}, "human Bub1, endogenous": {"target": "B1", "assay": "co-immunoprecipitation from U2OS stable lines"}}}
{"binder": "B1", "values": [{"measurement": "binding result", "setting": "T antigen mutant D44N", "value": "binds"}, {"measurement": "binding result", "setting": "[1]", "value": "binds"}]}
{"binder": "B2", "values": [{"measurement": "binding result", "setting": "[2]", "value": "binds"}]}
{"binder": "B3", "values": [{"measurement": "binding result", "setting": "human Bub1, endogenous", "value": "no binding"}]}
